Laboratory results as given in paper PMC6941110, “Mutation of Aspartate 238 in FAD Synthase Isoform 6 Increases the Specific Activity by Weakening the FAD Binding” (International Journal of Molecular Sciences, 2019).

Columns and labels:
Assay in all cases: purified protein
Assay type in all cases: biochemical, Homo sapiens
[1] = test system: T1, Nc1ncnc2c1ncn2[C@@H]1O[C@H](COP(=O)(O)OP(=O)(O)OP(=O)(O)O)[C@@H](O)[C@H]1O; details: forward reaction, 5 mM MgCl2, 50 mM Tris/HCl pH 7.5, 37 °C
T1 construct: 320-residue isoform 6, FADSy domain only, lacks N-terminal FADHy domain; monomer

[2] = test system: T2, Cc1cc2nc3c(=O)[nH]c(=O)nc-3n(C[C@H](O)[C@H](O)[C@H](O)COP(=O)(O)O)c2cc1C; details: forward reaction, 100 µM ATP, 5 mM MgCl2, 50 mM Tris/HCl pH 7.5, 37 °C
T2 construct: 320-residue isoform 6, FADSy domain only, lacks N-terminal FADHy domain; monomer

O=P(O)(O)OP(=O)(O)O = test system: T3, O=P(O)(O)OP(=O)(O)O; details: reverse reaction, 0.5 µM FAD, 5 mM MgCl2, 50 mM Tris/HCl pH 7.5, 37 °C
T3 construct: 320-residue isoform 6, FADSy domain only, lacks N-terminal FADHy domain; monomer

Chain of hFADS6 (human FAD synthase isoform 6) (Homo sapiens; D505A) (chain, as listed by the source D505A): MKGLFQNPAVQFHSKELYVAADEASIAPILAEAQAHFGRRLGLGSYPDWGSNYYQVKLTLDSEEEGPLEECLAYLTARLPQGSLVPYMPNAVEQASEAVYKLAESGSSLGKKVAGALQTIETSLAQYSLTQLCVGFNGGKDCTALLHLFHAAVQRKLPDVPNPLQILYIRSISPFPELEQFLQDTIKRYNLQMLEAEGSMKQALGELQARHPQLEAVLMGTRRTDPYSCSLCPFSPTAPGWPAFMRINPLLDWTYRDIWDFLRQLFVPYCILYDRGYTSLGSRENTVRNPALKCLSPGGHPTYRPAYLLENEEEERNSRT
Chain of hFADS6 (human FAD synthase isoform 6) (Homo sapiens) (chain, as listed by the source): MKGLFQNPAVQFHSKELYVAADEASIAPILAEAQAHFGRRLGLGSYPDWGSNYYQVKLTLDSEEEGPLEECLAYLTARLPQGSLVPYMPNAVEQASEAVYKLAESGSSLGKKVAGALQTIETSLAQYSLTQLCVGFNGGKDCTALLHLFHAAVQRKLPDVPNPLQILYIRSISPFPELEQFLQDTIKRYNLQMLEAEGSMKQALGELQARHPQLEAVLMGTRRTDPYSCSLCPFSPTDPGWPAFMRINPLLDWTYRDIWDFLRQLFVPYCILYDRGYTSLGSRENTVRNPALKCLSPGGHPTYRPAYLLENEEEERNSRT

Row | Substance | Km ([1]; 3 µM FMN) [µM] | kcat ([1]; 3 µM FMN) [s⁻¹] | Km [2] [µM] | kcat [2] [s⁻¹] | Km (O=P(O)(O)OP(=O)(O)O) [µM] | Km ([1]; 2 µM FMN) [µM] | kcat ([1]; 2 µM FMN) [s⁻¹]
1 | hFADS6 (human FAD synthase isoform 6) (Homo sapiens; D505A) | 44 ± 4 | 0.093 ± 0.003 | 1.3 ± 0.3 | 0.103 ± 0.007 | 60 ± 8 |  | 
2 | hFADS6 (human FAD synthase isoform 6) (Homo sapiens) |  |  | 0.13 ± 0.01 | 0.047 ± 0.001 | 42 ± 6 | 6.9 ± 0.5 | 0.050 ± 0.001
